Consider one substance from IntAct's records for PubMed 10660620.

This assay concerns the target pilra_human PILRA (UniProt Q9UKJ1).

Sequence of pilra_human PILRA (Q9UKJ1 whole entry): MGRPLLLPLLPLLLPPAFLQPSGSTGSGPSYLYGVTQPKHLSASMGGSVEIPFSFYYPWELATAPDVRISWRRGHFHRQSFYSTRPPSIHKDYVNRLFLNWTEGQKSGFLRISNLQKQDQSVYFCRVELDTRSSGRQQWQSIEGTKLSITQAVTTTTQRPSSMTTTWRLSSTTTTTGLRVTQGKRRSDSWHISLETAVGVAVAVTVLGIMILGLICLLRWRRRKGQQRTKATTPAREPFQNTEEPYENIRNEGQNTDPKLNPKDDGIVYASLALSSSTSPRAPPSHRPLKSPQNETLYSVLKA
Sequence of Tyrosine-protein phosphatase non-receptor type 6 (Homo sapiens), P29350 D419A (P29350 whole entry D419A): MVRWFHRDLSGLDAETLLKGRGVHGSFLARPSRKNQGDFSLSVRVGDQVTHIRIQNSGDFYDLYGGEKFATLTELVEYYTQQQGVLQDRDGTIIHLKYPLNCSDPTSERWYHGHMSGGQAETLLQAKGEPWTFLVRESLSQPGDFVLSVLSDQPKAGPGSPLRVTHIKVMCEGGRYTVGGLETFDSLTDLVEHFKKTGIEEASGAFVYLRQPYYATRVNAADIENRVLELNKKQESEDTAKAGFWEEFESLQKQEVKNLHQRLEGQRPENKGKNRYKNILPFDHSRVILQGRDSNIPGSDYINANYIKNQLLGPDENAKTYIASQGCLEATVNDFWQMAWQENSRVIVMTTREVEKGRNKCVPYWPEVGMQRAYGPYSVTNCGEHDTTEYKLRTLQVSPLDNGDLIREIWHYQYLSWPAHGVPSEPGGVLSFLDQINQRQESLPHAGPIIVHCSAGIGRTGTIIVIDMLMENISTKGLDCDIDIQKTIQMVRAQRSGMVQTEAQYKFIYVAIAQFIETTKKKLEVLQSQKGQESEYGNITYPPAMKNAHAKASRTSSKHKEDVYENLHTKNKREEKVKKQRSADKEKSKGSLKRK

Turning to “Tyrosine-protein phosphatase non-receptor type 6 (Homo sapiens), P29350 D419A”, the “effect of a mutation on the interaction” value is recorded as “increasing interaction”.
